Laboratory results reported in patent US20200165349A1 (Genmab, published 2020).

How the values were obtained:
Human CD137 [1] = molecular target: T1, Human CD137 (human, UniProt Q07011 24-255); assay: flow cytometry on FreeStyle HEK293 cells expressing CD137 (alanine scanning), 3 µg/mL A488-labeled antibody
T1 construct: also called hCD137 wt; 4-1BB
Protocol: The wild type CD137 and alanine mutants were expressed individually in FreeStyle HEK293 cells according to the manufacturer's instructions (Thermo Scientific). One day post transfection, the cells were harvested. […] Cells were incubated at room temperature for 30 min. Subsequently, cells were washed twice by centrifugation using 150-200 μL FACS buffer. Cells were suspended in 30 μL FACS buffer and stored at 4° C. until analysis by flow cytometry using an iQue screener.

Human CD137 [2] = molecular target: T1, Human CD137; assay: cell-based or functional assay
Human CD137 [3] = molecular target: T1, Human CD137; assay: cell-based or functional assay; remark: listed apart in the source

B1: CD137-005-FEAR-A488 (antibody, V domains shown)
VH: QSVEESGGRLVTPGTPLTLTCTASGFTISDFHVTWVRQAPGKGLEWIGTIITSASTTAYATWARGRFTISKSSTTVNLKIVSPTTEDTATYFCARSTYTDTSGYYFDFWGQGTLVTVSS
VL: AQVLTQTASPVSAAVGGTVIINCQSSQSIYNGNRLSWYQQKPGQPPKLLIYSASTLASGVSSRFKGSGSGTQFTLAISDVQSDDAATYYCLGSYDCDSADCFAFGGGTEVVVER
notes: Conjugated with Alexa Fluor 488
Human CD137 [1]
  binding result: binds

B2: b12-FEAL×CD137-009-FEAR-A488 (bispecific antibody, not shown: large carriers)
heavy 1: QVQLVQSGAEVKKPGASVKVSCQASGYRFSNFVIHWVRQAPGQRFEWMGWINPYNGNKEFSAKFQDRVTFTADTSANTAYMELRSLRSADTAVYYCARVGPYSWDDSPQDNYYMDVWGKGTTVIVSSASTKGPSVFPLAPSSKSTSGGTAALGCLVKDYFPEPVTVSWNSGALTSGVHTFPAVLQSSGLYSLSSVVTVPSSSLGTQTYICNVNHKPSNTKVDKRVEPKSCDKTHTCPPCPAPEFEGGPSVFLFPPKPKDTLMISRTPEVTCVVVAVSHEDPEVKFNWYVDGVEVHNAKTKPREEQYNSTYRVVSVLTVLHQDWLNGKEYKCKVSNKALPAPIEKTISKAKGQPREPQVYTLPPSREEMTKNQVSLTCLVKGFYPSDIAVEWESNGQPENNYKTTPPVLDSDGSFLLYSKLTVDKSRWQQGNVFSCSVMHEALHNHYTQKSLSLSPGK
light 1: EIVLTQSPGTLSLSPGERATFSCRSSHSIRSRRVAWYQHKPGQAPRLVIHGVSNRASGISDRFSGSGSGTDFTLTITRVEPEDFALYYCQVYGASSYTFGQGTKLERK
heavy 2: QSLEESGGRLVTPGTPLTLTCTVSGFSLNDYWMSWVRQAPGKGLEWIGYIDVGGSLYYASWAKGRFTISRTSTTVDLKMTSLTTEDTATYFCARGGLTYGFDLWGPGTLVTVSSASTKGPSVFPLAPSSKSTSGGTAALGCLVKDYFPEPVTVSWNSGALTSGVHTFPAVLQSSGLYSLSSVVTVPSSSLGTQTYICNVNHKPSNTKVDKRVEPKSCDKTHTCPPCPAPEFEGGPSVFLFPPKPKDTLMISRTPEVTCVVVAVSHEDPEVKFNWYVDGVEVHNAKTKPREEQYNSTYRVVSVLTVLHQDWLNGKEYKCKVSNKALPAPIEKTISKAKGQPREPQVYTLPPSREEMTKNQVSLTCLVKGFYPSDIAVEWESNGQPENNYKTTPPVLDSDGSFFLYSRLTVDKSRWQQGNVFSCSVMHEALHNHYTQKSLSLSPGK
light 2: DIVMTQTPASVSEPVGGTVTINCQASEDISSYLAWYQQKPGQRPKRLIYGASDLASGVPSRFSASGSGTEYALTISDLESADAATYYCHYYATISGLGVAFGGGTEVVVKRTVAAPSVFIFPPSDEQLKSGTASVVCLLNNFYPREAKVQWKVDNALQSGNSQESVTEQDSKDSTYSLSSTLTLSKADYEKHKVYACEVTHQGLSSPVTKSFNRGEC
Human CD137 [1]
  binding result: binds

B3: PD-L1-547-FEAL×CD137-009-HC7LC2-FEAR (bispecific antibody, human IgG1, kappa, lambda)
heavy 1: EVQLLEPGGGLVQPGGSLRLSCEASGSTFSTYAMSWVRQAPGKGLEWVSGFSGSGGFTFYADSVRGRFTISRDSSKNTLFLQMSSLRAEDTAVYYCAIPARGYNYGSFQHWGQGTLVTVSSASTKGPSVFPLAPSSKSTSGGTAALGCLVKDYFPEPVTVSWNSGALTSGVHTFPAVLQSSGLYSLSSVVTVPSSSLGTQTYICNVNHKPSNTKVDKRVEPKSCDKTHTCPPCPAPEFEGGPSVFLFPPKPKDTLMISRTPEVTCVVVAVSHEDPEVKFNWYVDGVEVHNAKTKPREEQYNSTYRVVSVLTVLHQDWLNGKEYKCKVSNKALPAPIEKTISKAKGQPREPQVYTLPPSREEMTKNQVSLTCLVKGFYPSDIAVEWESNGQPENNYKTTPPVLDSDGSFLLYSKLTVDKSRWQQGNVFSCSVMHEALHNHYTQKSLSLSPGK
light 1: SYVLTQPPSVSVAPGQTARITCGGNNIGSKSVHWYQQKPGQAPVLVVYDDNDRPSGLPERFSGSNSGNTATLTISRVEAGDEADYYCQVWDSSSDHVVFGGGTKLTVLGQPKAAPSVTLFPPSSEELQANKATLVCLISDFYPGAVTVAWKADSSPVKAGVETTTPSKQSNNKYAASSYLSLTPEQWKSHRSYSCQVTHEGSTVEKTVAPTECS
heavy 2: EVQLVESGGGLVQPGRSLRLSCTASGFSLNDYWMSWVRQAPGKGLEWVGYIDVGGSLYYAASVKGRFTISRDDSKSIAYLQMNSLKTEDTAVYYCARGGLTYGFDLWGQGTLVTVSSASTKGPSVFPLAPSSKSTSGGTAALGCLVKDYFPEPVTVSWNSGALTSGVHTFPAVLQSSGLYSLSSVVTVPSSSLGTQTYICNVNHKPSNTKVDKRVEPKSCDKTHTCPPCPAPEFEGGPSVFLFPPKPKDTLMISRTPEVTCVVVAVSHEDPEVKFNWYVDGVEVHNAKTKPREEQYNSTYRVVSVLTVLHQDWLNGKEYKCKVSNKALPAPIEKTISKAKGQPREPQVYTLPPSREEMTKNQVSLTCLVKGFYPSDIAVEWESNGQPENNYKTTPPVLDSDGSFFLYSRLTVDKSRWQQGNVFSCSVMHEALHNHYTQKSLSLSPGK
light 2: DIVMTQSPSSLSASVGDRVTITCQASEDISSYLAWYQQKPGKAPKRLIYGASDLASGVPSRFSASGSGTDYTFTISSLQPEDIATYYCHYYATISGLGVAFGGGTKVEIKRTVAAPSVFIFPPSDEQLKSGTASVVCLLNNFYPREAKVQWKVDNALQSGNSQESVTEQDSKDSTYSLSSTLTLSKADYEKHKVYACEVTHQGLSSPVTKSFNRGEC
Human CD137 [2]
  EC50 value, CD8+ T-cell expansion, donor 1, 0.03 µg/ml anti-CD3: 12.2 ng/mL
  EC50 value, CD8+ T-cell expansion, donor 2, 0.09 µg/ml anti-CD3: 6.89 ng/mL

B4: CD137-009-FEAL×PD-L1-547-FEAR (bispecific antibody, human IgG1, kappa, lambda)
heavy 1: QSLEESGGRLVTPGTPLTLTCTVSGFSLNDYWMSWVRQAPGKGLEWIGYIDVGGSLYYASWAKGRFTISRTSTTVDLKMTSLTTEDTATYFCARGGLTYGFDLWGPGTLVTVSSASTKGPSVFPLAPSSKSTSGGTAALGCLVKDYFPEPVTVSWNSGALTSGVHTFPAVLQSSGLYSLSSVVTVPSSSLGTQTYICNVNHKPSNTKVDKRVEPKSCDKTHTCPPCPAPEFEGGPSVFLFPPKPKDTLMISRTPEVTCVVVAVSHEDPEVKFNWYVDGVEVHNAKTKPREEQYNSTYRVVSVLTVLHQDWLNGKEYKCKVSNKALPAPIEKTISKAKGQPREPQVYTLPPSREEMTKNQVSLTCLVKGFYPSDIAVEWESNGQPENNYKTTPPVLDSDGSFLLYSKLTVDKSRWQQGNVFSCSVMHEALHNHYTQKSLSLSPGK
light 1: DIVMTQTPASVSEPVGGTVTINCQASEDISSYLAWYQQKPGQRPKRLIYGASDLASGVPSRFSASGSGTEYALTISDLESADAATYYCHYYATISGLGVAFGGGTEVVVKRTVAAPSVFIFPPSDEQLKSGTASVVCLLNNFYPREAKVQWKVDNALQSGNSQESVTEQDSKDSTYSLSSTLTLSKADYEKHKVYACEVTHQGLSSPVTKSFNRGEC
heavy 2: EVQLLEPGGGLVQPGGSLRLSCEASGSTFSTYAMSWVRQAPGKGLEWVSGFSGSGGFTFYADSVRGRFTISRDSSKNTLFLQMSSLRAEDTAVYYCAIPARGYNYGSFQHWGQGTLVTVSSASTKGPSVFPLAPSSKSTSGGTAALGCLVKDYFPEPVTVSWNSGALTSGVHTFPAVLQSSGLYSLSSVVTVPSSSLGTQTYICNVNHKPSNTKVDKRVEPKSCDKTHTCPPCPAPEFEGGPSVFLFPPKPKDTLMISRTPEVTCVVVAVSHEDPEVKFNWYVDGVEVHNAKTKPREEQYNSTYRVVSVLTVLHQDWLNGKEYKCKVSNKALPAPIEKTISKAKGQPREPQVYTLPPSREEMTKNQVSLTCLVKGFYPSDIAVEWESNGQPENNYKTTPPVLDSDGSFFLYSRLTVDKSRWQQGNVFSCSVMHEALHNHYTQKSLSLSPGK
light 2: SYVLTQPPSVSVAPGQTARITCGGNNIGSKSVHWYQQKPGQAPVLVVYDDNDRPSGLPERFSGSNSGNTATLTISRVEAGDEADYYCQVWDSSSDHVVFGGGTKLTVLGQPKAAPSVTLFPPSSEELQANKATLVCLISDFYPGAVTVAWKADSSPVKAGVETTTPSKQSNNKYAASSYLSLTPEQWKSHRSYSCQVTHEGSTVEKTVAPTECS
Human CD137 [3]
  EC50 of the induction of antigen-specific T cell proliferation, '% divided cells': 3.49 ng/mL
  EC50 of the induction of antigen-specific T cell proliferation, 'proliferation index': 5.39 ng/mL
